Experimental data taken from patent US10668049B2, “Methods of treating cognitive decline with transforming growth factor beta inhibitors” (The Regents of the University of California, priority 2008, dated 2020).

Tests used:
TGF-βRII = molecular target: T1, TGF-βRII (Rattus norvegicus, UniProt P38438); test: Albumin and TGF-βRII co-immunoprecipitation in cortical lysates; assay type: binding; conditions: cortical lysate pre-incubated with albumin
T1 construct: brains were isolated from adult Wistar rats, dissected in cold saline solution and lysed in RIPA buffer; from tissue; host or cells: adult Wistar rat brain cortex lysate (RIPA buffer)
T1 sequence (P38438 24-567): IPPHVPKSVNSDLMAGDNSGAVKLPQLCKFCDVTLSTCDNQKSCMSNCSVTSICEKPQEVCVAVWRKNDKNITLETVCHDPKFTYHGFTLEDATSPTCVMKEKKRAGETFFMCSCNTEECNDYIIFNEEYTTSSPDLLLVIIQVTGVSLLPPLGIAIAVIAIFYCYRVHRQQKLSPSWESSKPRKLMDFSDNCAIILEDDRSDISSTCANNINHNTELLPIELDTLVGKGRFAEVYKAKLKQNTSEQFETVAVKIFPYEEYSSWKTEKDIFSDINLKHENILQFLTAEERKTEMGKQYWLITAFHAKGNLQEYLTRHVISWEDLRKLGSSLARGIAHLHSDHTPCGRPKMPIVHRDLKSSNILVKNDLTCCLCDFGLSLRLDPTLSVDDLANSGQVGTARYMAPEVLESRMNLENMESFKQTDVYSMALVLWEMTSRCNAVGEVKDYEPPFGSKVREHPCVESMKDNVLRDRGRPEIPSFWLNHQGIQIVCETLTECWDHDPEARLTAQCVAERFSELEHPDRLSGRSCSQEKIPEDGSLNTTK
Experimental: To prepare cortical lysates, brains were isolated from adult Wistar rats, dissected in cold saline solution and lysed in RIPA buffer. BSA (3 μg) was added to lysates to approximately match the amount of precipitating anti-albumin antibodies. Immunoprecipitation was performed using the Catch and Release® v2.0 Reversible Immunoprecipitation System (Upstate, Charlottesville, Va.) with the following modifications to the standard protocol: the starting amount of protein was increased to 1,500 μg and the incubation time with precipitating antibodies was increased to 90 minutes. […]
The immunoprecipitated samples were separated with SDS-PAGE and transferred onto a nitrocellulose membrane. […] TGF-βRII was detected with a rabbit anti-TGF-βRII antibody (Upstate) and an AP-conjugated donkey anti-rabbit IgG secondary antibody (Jackson ImmunoResearch Laboratories, West Grove, Pa.). […]
To determine whether albumin binds to TGF-β receptors, co-immunoprecipitation using antibodies against albumin or TGF-βRII was performed on cortical lysate samples treated with albumin. An expected hand corresponding to TGF-βRII was detected in samples immunoprecipitated with the TGF-βRII antibody. More importantly, this band was also detected in samples pre-incubated with albumin when immunoprecipitated with the albumin antibody and probed for TGF-βRII (FIG. 2a). […]

[1] = molecular target: T2, astrocyte specific glutamate transporter, SLC1A2 (Rattus norvegicus, UniProt P31596); test: Whole cell patch recording of NMDA-mediated EPSCs in cortical pyramidal neurons; assay type: cell-based
T2 construct: In vitro intracellular recordings were obtained from pyramidal neurons (layer 2-3) 23-28 h following the in vivo treatment; from tissue; host or cells: acute rat neocortical slices (astrocytic transporter; recordings from layer 2-3 pyramidal neurons)
T2 sequence (P31596 whole entry): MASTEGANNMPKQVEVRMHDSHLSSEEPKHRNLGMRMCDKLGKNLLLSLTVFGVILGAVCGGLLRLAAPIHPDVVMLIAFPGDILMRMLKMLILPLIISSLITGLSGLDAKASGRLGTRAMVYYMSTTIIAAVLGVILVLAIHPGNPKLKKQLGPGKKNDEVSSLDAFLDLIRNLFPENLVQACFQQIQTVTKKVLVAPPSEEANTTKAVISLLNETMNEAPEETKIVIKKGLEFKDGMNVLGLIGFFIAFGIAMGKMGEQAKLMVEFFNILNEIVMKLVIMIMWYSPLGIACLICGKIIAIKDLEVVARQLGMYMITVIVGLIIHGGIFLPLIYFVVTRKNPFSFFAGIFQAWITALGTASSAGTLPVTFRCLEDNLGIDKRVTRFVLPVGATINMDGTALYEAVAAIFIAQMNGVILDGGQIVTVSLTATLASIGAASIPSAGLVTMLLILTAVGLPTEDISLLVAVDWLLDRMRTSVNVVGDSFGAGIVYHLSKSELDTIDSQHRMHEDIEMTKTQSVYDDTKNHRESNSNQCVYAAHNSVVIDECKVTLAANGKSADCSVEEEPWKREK
Experimental: In vitro intracellular recordings were obtained from pyramidal neurons (layer 2-3) 23-28 h following the in vivo treatment with albumin or from control rats. Currents were recorded using the whole cell patch configuration, as described previously (Pavlovsky et al., 2003). In brief, glass pipettes were pulled from capillaries using a vertical puller (Narashige, Greenvale, N.Y.) and filled with a solution comprising (in mM): 150 CsCl, 1 MgCl2, 10 HEPES, 4 Na2ATP, 0.1 CaCl2, and 1.1 mM EGTA, pH adjusted to 7.2 with a final osmolarity of 290-310 mOsm. Cells were visualized using infrared differential interference phase contrast video-microscopy. Recordings were performed using AxoPatch 700B (Axon Instruments, Foster City, Calif.), digitized at 10 kHz and recorded using pClamp 9.2 (Axon Instruments, Foster City, Calif.). Patch pipette's resistance was 4-5 MΩ. Series resistance was not electronically compensated; however, cells in which series resistance varied by more than 25% were excluded from the analysis. Stimulation protocols were started at least 5 min following impalement to allow intracellular dialysis with the pipette solution. Excitatory post-synaptic currents (EPSCs) were evoked—using a bipolar stimulating electrode positioned <200 μm from the recorded cell—at 75% of the intensity producing maximal EPSCs. N-methyl-D-aspartic acid (NMDA) currents were recorded in the presence of blockers of α-amino-3-hydroxy-5-methyl-4-isoxazole-propionic acid (AMPA)/kainate (i.e., 30 μM CNQX) and of gamma-aminobutyric acid A (GABAA) receptors (i.e., 10 μM bicuculine methiodide). Cells were voltage clamped to +40 mV to alleviate NMDA receptor blockade and inactivate fast Na^+ currents. In some experiments, dihydrokainic acid (DHK, Tocris, Bristol, UK), 100 μM, was added to the extracellular solution to selectively block the astrocyte specific glutamate transporter, SLC1A2 (see Arriza et al., 1994).
To confirm that the transcriptional changes induced by albumin were associated with altered cellular functions, the clearance of extracellular glutamate and potassium in cortical slices 24 hours following albumin treatment in vivo was investigated. To measure synaptic glutamate levels during neuronal activation, the slowly inactivating (Lester et al., 1990) NMDA currents in cortical neurons were recorded by using the whole-cell patch configuration (in the presence of non-NMDA glutamate and GABA receptor blockers, see Methods). Cells were clamped at +40 mV to prevent a potential confounding effect of post-synaptic depolarization due to the accumulation of synaptic [K^+]o. […] Synaptic glutamate elicited by 50 extracellular stimulations at 2, 5, 10, 20, 50 and 100 Hz before and after adding the astrocytic SLC1A2 specific inhibitor, DHK was measured. In neurons from control animals, DHK had no effect on single EPSCs or EPSCs elicited at low stimulation frequencies (<20 Hz). […] The same experiments were then repeated 24 h following cortical application of albumin (i.e. during epileptogenesis). In contrast to the control experiments, DHK had no effect on EPSC amplitude in treated slices (FIG. 13b-c, right), supporting reduced expression of the astrocytic transporter SLC1A2.

[2] = 24 h following albumin treatment in vivo, clamped at +40 mV

Substance: albumin: bovine serum albumin, used to induce epileptogenesis
- interaction with TGF-βRII (co-immunoprecipitation) (TGF-βRII): direct interaction
- Mean single EPSC amplitude [1, 2]: 505±100 pA
- Mean single EPSC rise-time [1, 2]: 14.5 ± 0.5 ms
- EPSC amplitude on repetitive stimulation, compared to controls ([1]; 24 h following cortical application of albumin): stronger depression
